Data: article PMC3232451 (Nature structural & molecular biology, 2011)
Each block holds one molecule with its values, some of them ahead of it. Where no end group is shown, it is not given here.

How the values were obtained:
[1] = target: TBL1 wild type (gel filtration and HSQC; limits not stated) (human); assay: NMR HSQC spectra
[2] = target: TBL1 wild type (gel filtration and HSQC; limits not stated) (human); assay: SEC
[3] = target: TBL1 F26A (human); assay: NMR HSQC spectra
[4] = target: TBL1 F26A (human); assay: SEC
[5] = target: T1, SMRT(167-207), GST removed (human, UniProt Q9Y618 167-207); assay: NMR structure
T1 chain (looked up): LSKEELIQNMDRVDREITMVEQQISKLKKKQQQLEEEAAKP

[6] = target: T2, His6-TBL1(1-90) (human, UniProt O60907-2 1-90); assay: fluorescence polarisation
T2 sequence (looked up): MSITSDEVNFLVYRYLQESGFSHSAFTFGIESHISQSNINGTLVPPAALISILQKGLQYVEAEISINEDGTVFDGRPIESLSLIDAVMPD

[7] = target: the molecule itself; assay: crystal structure

stoichiometry N [1]: 4
stoichiometry N [2]: 4
Molecule: TBL1 wild type (gel filtration and HSQC; limits not stated) (domain or fragment)

stoichiometry N [3]: 2
stoichiometry N [4]: 2
Molecule: TBL1 F26A (domain or fragment)

binding result [5]: binds
Molecule: KKEMEERMSLEETKEQILKLEEKLLALQEEKHQLFLQL (domain or fragment, human, UniProt Q13227 53-90, looked up) [GPS2(53-90)]

Kd [6]: 5.1 µM
B1: BODIPY labeled GPS2(1-52) (peptide, UniProt Q13227 1-52, looked up)
chain: MPALLERPKLSNAMARALHRHIMMERERKRQEEEEVDKMMEQKMKEEQERRK
modifications: also: BODIPY label, position not given here

Kd [6]: 14.7 µM
Molecule: VQIIYDENRKKAEAAHRILEGLGPQVELPLYNQP (peptide, UniProt Q9Y618 227-260, looked up, also: BODIPY label, position not given here) [BODIPY labeled SMRT(227-260)]

B2: His6-TBL1(1-71) (domain or fragment, human, UniProt O60907-2 1-71, looked up)
chain: MSITSDEVNFLVYRYLQESGFSHSAFTFGIESHISQSNINGTLVPPAALISILQKGLQYVEAEISINEDGT
stoichiometry N [7]: 4
